Laboratory results from the supplement of paper PMC9112550, “Optimization of the antimicrobial peptide Bac7 by deep mutational scanning” (BMC Biology, 2022).

Tested on: Escherichia coli TOP10
Assay: shrunken log2 fold change of peptide-encoding DNA abundance (4.5 h post-induction vs induction); higher = less antimicrobial activity (less host growth inhibition)
Conditions: time post-induction: 4.5 h; library: site-saturation at positions 5, 18, 19, 20
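Further: peptides expressed intracellularly from a pBAD plasmid library in pooled LB shake-flask culture, induced with 0.3% L-arabinose, DNA abundance read by NGS, three biological replicates, DESeq2 with apeglm shrinkage.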

| Sequence | shrunken log2 fold change |
| --- | --- |
| RRIRMRPPRLPRPRPRPHKVPRP | 0.14 |
| RRIRMRPPRLPRPRPRPQMTPRP | 1.2 |
| RRIRGRPPRLPRPRPRPCACPRP | 0.225 |
| RRIRKRPPRLPRPRPRPKMSPRP | -0.315 |
| RRIRHRPPRLPRPRPRPIKNPRP | -0.563 |
| RRIRERPPRLPRPRPRPAMGPRP | -0.0135 |
| RRIRFRPPRLPRPRPRPELNPRP | 0.164 |
| RRIRMRPPRLPRPRPRPMDFPRP | -0.00448 |
| RRIRSRPPRLPRPRPRPDLRPRP | 0.248 |
| RRIRLRPPRLPRPRPRPWWKPRP | -0.198 |
| RRIRERPPRLPRPRPRPDSEPRP | -0.0854 |
| RRIRRRPPRLPRPRPRPMWKPRP | -0.0119 |
| RRIRWRPPRLPRPRPRPCRMPRP | -0.0166 |
| RRIRHRPPRLPRPRPRPRKLPRP | -0.141 |
| RRIRERPPRLPRPRPRPPDMPRP | -0.332 |
| RRIRERPPRLPRPRPRPQQLPRP | -0.178 |
| RRIRCRPPRLPRPRPRPQRPPRP | 0.166 |
| RRIRSRPPRLPRPRPRPMINPRP | -0.23 |
| RRIRKRPPRLPRPRPRPKEDPRP | 0.795 |
| RRIRMRPPRLPRPRPRPYPNPRP | -0.021 |
| RRIRLRPPRLPRPRPRPPTDPRP | 0.127 |
| RRIRNRPPRLPRPRPRPYARPRP | -0.0034 |
| RRIRERPPRLPRPRPRPDPHPRP | -0.011 |
| RRIRFRPPRLPRPRPRPYPRPRP | -0.6 |
| RRIRKRPPRLPRPRPRPQIIPRP | 0.0891 |

| Sequence | shrunken log2 fold change |
| --- | --- |
| RRIRLRPPRLPRPRPRPIFMPRP | -0.414 |
| RRIRHRPPRLPRPRPRPSGKPRP | -0.0266 |
| RRIRDRPPRLPRPRPRPIFPPRP | 0.19 |
| RRIRMRPPRLPRPRPRPFNTPRP | -0.0396 |
| RRIRCRPPRLPRPRPRPDREPRP | 0.0186 |
| RRIRNRPPRLPRPRPRPQVNPRP | -0.129 |
| RRIRMRPPRLPRPRPRPQVDPRP | -0.00893 |
| RRIRMRPPRLPRPRPRPMSRPRP | 0.0997 |
| RRIRIRPPRLPRPRPRPHEHPRP | -0.405 |
| RRIRMRPPRLPRPRPRPSRTPRP | 0.715 |
| RRIRRRPPRLPRPRPRPRSKPRP | 0.29 |
| RRIRVRPPRLPRPRPRPLVYPRP | -0.193 |
| RRIRNRPPRLPRPRPRPWNIPRP | -0.0117 |
| RRIRQRPPRLPRPRPRPVSYPRP | 0.0822 |
| RRIRMRPPRLPRPRPRPYSCPRP | -0.706 |
| RRIRDRPPRLPRPRPRPHPTPRP | 0.0176 |
| RRIRFRPPRLPRPRPRPRFNPRP | -0.196 |
| RRIRARPPRLPRPRPRPKPEPRP | 0.223 |
| RRIRCRPPRLPRPRPRPEQVPRP | -0.0491 |
| RRIRIRPPRLPRPRPRPDSPPRP | -0.0466 |
| RRIRCRPPRLPRPRPRPQYPPRP | -0.329 |
| RRIRIRPPRLPRPRPRPFNQPRP | -0.977 |
| RRIRSRPPRLPRPRPRPQLDPRP | -0.191 |
| RRIRWRPPRLPRPRPRPPTIPRP | -0.0126 |
| RRIRCRPPRLPRPRPRPWSEPRP | -0.0285 |

| Sequence | shrunken log2 fold change |
| --- | --- |
| RRIRRRPPRLPRPRPRPCMLPRP | -0.151 |
| RRIRTRPPRLPRPRPRPGISPRP | 0.0832 |
| RRIRRRPPRLPRPRPRPIACPRP | 0.0283 |
| RRIRMRPPRLPRPRPRPFSWPRP | 0.0956 |
| RRIRYRPPRLPRPRPRPMNMPRP | -0.139 |
| RRIRLRPPRLPRPRPRPWTNPRP | 0.0169 |
| RRIRMRPPRLPRPRPRPCDMPRP | 0.195 |
| RRIRFRPPRLPRPRPRPESWPRP | 0.53 |
| RRIRFRPPRLPRPRPRPSQQPRP | -0.277 |
| RRIRLRPPRLPRPRPRPLATPRP | 0.38 |
| RRIRGRPPRLPRPRPRPKDQPRP | 0.843 |
| RRIRYRPPRLPRPRPRPPRAPRP | 0.403 |
| RRIRDRPPRLPRPRPRPHKVPRP | -0.0568 |
| RRIRYRPPRLPRPRPRPSHIPRP | -1.45 |
| RRIRFRPPRLPRPRPRPCHPPRP | 1.35 |
| RRIRYRPPRLPRPRPRPLIDPRP | -0.00288 |
| RRIRARPPRLPRPRPRPPMVPRP | 0.0322 |
| RRIRCRPPRLPRPRPRPTTVPRP | -0.356 |
| RRIRYRPPRLPRPRPRPFGIPRP | -0.149 |
| RRIRFRPPRLPRPRPRPWMNPRP | -0.708 |
| RRIRMRPPRLPRPRPRPIIRPRP | 0.0027 |
| RRIRYRPPRLPRPRPRPPSYPRP | -0.156 |
| RRIRIRPPRLPRPRPRPKEIPRP | -0.113 |
| RRIRLRPPRLPRPRPRPCSKPRP | -0.0788 |
| RRIRARPPRLPRPRPRPGIEPRP | 0.108 |

| Sequence | shrunken log2 fold change |
| --- | --- |
| RRIRNRPPRLPRPRPRPSIVPRP | -0.335 |
| RRIRCRPPRLPRPRPRPCIPPRP | -0.01 |
| RRIRQRPPRLPRPRPRPALAPRP | 0.73 |
| RRIRCRPPRLPRPRPRPWWFPRP | 0.0459 |
| RRIRHRPPRLPRPRPRPEPDPRP | 0.257 |
| RRIRERPPRLPRPRPRPRFGPRP | 0.152 |
| RRIRQRPPRLPRPRPRPVKKPRP | -0.0152 |
| RRIRKRPPRLPRPRPRPQWTPRP | 0.0894 |
| RRIRWRPPRLPRPRPRPQSIPRP | -0.584 |
| RRIRWRPPRLPRPRPRPAEEPRP | 3.62 |
| RRIRQRPPRLPRPRPRPYHPPRP | -0.531 |
| RRIRKRPPRLPRPRPRPPFTPRP | 0.243 |
| RRIRARPPRLPRPRPRPRNNPRP | -0.101 |
| RRIRQRPPRLPRPRPRPDPPPRP | 0.316 |
| RRIRRRPPRLPRPRPRPRDIPRP | 0.0666 |
| RRIRERPPRLPRPRPRPTFQPRP | -0.103 |
| RRIRNRPPRLPRPRPRPNVPPRP | -0.128 |
| RRIRPRPPRLPRPRPRPAYRPRP | -0.0399 |
| RRIRLRPPRLPRPRPRPIFWPRP | -0.189 |
| RRIRVRPPRLPRPRPRPPPTPRP | 0.933 |
| RRIRFRPPRLPRPRPRPQPQPRP | 0.301 |
| RRIRQRPPRLPRPRPRPFGPPRP | 0.0675 |
| RRIRMRPPRLPRPRPRPDFKPRP | -0.11 |
| RRIRDRPPRLPRPRPRPNTPPRP | -0.0665 |
| RRIRTRPPRLPRPRPRPAYEPRP | 0.164 |

| Sequence | shrunken log2 fold change |
| --- | --- |
| RRIRYRPPRLPRPRPRPHEDPRP | -0.172 |
| RRIRWRPPRLPRPRPRPQFNPRP | -0.498 |
| RRIRARPPRLPRPRPRPTILPRP | 0.344 |
| RRIRRRPPRLPRPRPRPIYGPRP | -0.69 |
| RRIRFRPPRLPRPRPRPCTLPRP | -0.471 |
| RRIRKRPPRLPRPRPRPESDPRP | 0.262 |
| RRIRNRPPRLPRPRPRPRTRPRP | 0.368 |
| RRIRSRPPRLPRPRPRPWGNPRP | -0.236 |
| RRIRLRPPRLPRPRPRPCRPPRP | -0.0863 |
| RRIRWRPPRLPRPRPRPWMMPRP | 0.119 |
| RRIRERPPRLPRPRPRPEESPRP | 0.148 |
| RRIRVRPPRLPRPRPRPVCMPRP | 0.0454 |
| RRIRWRPPRLPRPRPRPQQEPRP | 0.0149 |
| RRIRGRPPRLPRPRPRPDEIPRP | -0.0447 |
| RRIRHRPPRLPRPRPRPRFWPRP | 0.112 |
| RRIRIRPPRLPRPRPRPGQHPRP | -0.0183 |
| RRIRSRPPRLPRPRPRPRIYPRP | -0.517 |
| RRIRVRPPRLPRPRPRPHYNPRP | -0.366 |
| RRIRNRPPRLPRPRPRPKIWPRP | 0.0854 |
| RRIRHRPPRLPRPRPRPDSSPRP | 0.00209 |
| RRIRWRPPRLPRPRPRPWYCPRP | 0.0408 |
| RRIRRRPPRLPRPRPRPVAIPRP | 0.687 |
| RRIRSRPPRLPRPRPRPWKPPRP | -0.0117 |
| RRIRGRPPRLPRPRPRPPWNPRP | 0.411 |
| RRIRERPPRLPRPRPRPMIYPRP | -0.12 |

| Sequence | shrunken log2 fold change |
| --- | --- |
| RRIRDRPPRLPRPRPRPSMTPRP | 0.237 |
| RRIRKRPPRLPRPRPRPNLGPRP | 0.207 |
| RRIRHRPPRLPRPRPRPYIYPRP | -0.347 |
| RRIRPRPPRLPRPRPRPMLSPRP | 0.0181 |
| RRIRSRPPRLPRPRPRPICMPRP | 0.177 |
| RRIRQRPPRLPRPRPRPSRTPRP | -0.29 |
| RRIRTRPPRLPRPRPRPTQFPRP | 0.0832 |
| RRIRQRPPRLPRPRPRPVLWPRP | 0.193 |
| RRIRWRPPRLPRPRPRPHMNPRP | -0.667 |
| RRIRMRPPRLPRPRPRPTPTPRP | 2 |
| RRIRYRPPRLPRPRPRPRLKPRP | 3.7 |
| RRIRWRPPRLPRPRPRPFDGPRP | -0.0363 |
| RRIRWRPPRLPRPRPRPGDSPRP | -0.163 |
| RRIRQRPPRLPRPRPRPNEKPRP | -0.0522 |
| RRIRFRPPRLPRPRPRPHWYPRP | -0.343 |
| RRIRGRPPRLPRPRPRPLTPPRP | 1.43 |
| RRIRNRPPRLPRPRPRPHVLPRP | -0.245 |
| RRIRNRPPRLPRPRPRPLQAPRP | -0.0119 |
| RRIRNRPPRLPRPRPRPAEIPRP | -0.107 |
| RRIRARPPRLPRPRPRPWYAPRP | -0.307 |
| RRIRDRPPRLPRPRPRPQQDPRP | 0.0798 |
| RRIRKRPPRLPRPRPRPQATPRP | 0.0984 |
| RRIRERPPRLPRPRPRPKASPRP | 0.0444 |
| RRIRSRPPRLPRPRPRPLKFPRP | -0.0436 |
| RRIRHRPPRLPRPRPRPHARPRP | 0.0947 |
